This note sets out measurements from article doi:10.1101/2025.11.18.689162 (bioRxiv, 2025).

The target of this experiment is cardiac troponin I (TPNI), mouse, endogenous (mouse (endogenous in heart), UniProt P48787 1-211). Kind of experiment: cell-based or functional assay.
Sequence of cardiac troponin I (TPNI), mouse, endogenous (P48787 whole entry): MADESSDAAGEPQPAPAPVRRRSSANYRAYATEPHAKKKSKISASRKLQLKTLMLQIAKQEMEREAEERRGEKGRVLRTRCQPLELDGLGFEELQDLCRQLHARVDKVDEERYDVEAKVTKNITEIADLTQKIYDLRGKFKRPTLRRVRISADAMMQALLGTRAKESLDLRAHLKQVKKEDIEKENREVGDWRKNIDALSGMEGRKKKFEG

B1: PDE4D9, mouse, endogenous (enzyme, mouse (endogenous in heart), UniProt Q01063-2 1-678, looked up)
chain: MSIIMKPRSRSTSSLRTTEAVCFDVDNGTSAGRSPLDPMTSPGSGLILQANFVHSQRRESFLYRSDSDYDLSPKSMSRNSSIASDIHGDDLIVTPFAQVLASLRTVRNNFAALTNLQDRAPSKRSPMCNQPSINKATITEEAYQKLASETLEELDWCLDQLETLQTRHSVSEMASNKFKRMLNRELTHLSEMSRSGNQVSEYISNTFLDKQHEVEIPSPTQKEKEKKKRPMSQISGVKKLMHSSSLTNSCIPRFGVKTEQEDVLAKELEDVNKWGLHVFRIAELSGNRPLTVIMHTIFQERDLLKTFKIPVDTLITYLMTLEDHYHADVAYHNNIHAADVVQSTHVLLSTPALEAVFTDLEILAAIFASAIHDVDHPGVSNQFLINTNSELALMYNDSSVLENHHLAVGFKLLQEENCDIFQNLTKKQRQSLRKMVIDIVLATDMSKHMNLLADLKTMVETKKVTSSGVLLLDNYSDRIQVLQNMVHCADLSNPTKPLQLYRQWTDRIMEEFFRQGDRERERGMEISPMCDKHNASVEKSQVGFIDYIVHPLWETWADLVHPDAQDILDTLEDNREWYQSTIPQSPSPAPDDQEEGRQGQTEKFQFELTLEEDCESDTEKDSGSQVEEDTSCSDSKTLCTQDSESTEIPLDEQVEEEAVAEEESQPETCVPDDCCPDT
Consider B1, for which the “TPNI phosphorylation in TAC mice treated with scAAV9-P33 against scAAV9-SC” value came out at 2.8 fold.
